What was measured:
[1] = tested on: PU.1 expression in sorted HSC; assay: Quantitative RT-PCR of PU.1 expression in sorted HSC in culture; type: cell-based, mice; settings: 16 h in culture with cytokine, 100 ng/ml
Method: (§1) CD150+CD34− KSLF HSC or CD150+CD34− CD48− KSLF HSC (single cells) were sorted into S-clone SF-03 medium (Sanko Jyunyaku) with 10% FBS supplemented with 100 U/ml penicillin and […] streptomycin (both Invitrogen) and cultivated in uncoated U-Shape 96 well plates (Greiner) in 100 μl SCM, 20 ng/ml rSCF, 50 ng/ml rTPO+/−100 ng/ml rM-CSF or 100 ng/ml rGM-CSF or 100 ng/ml rG-CSF. All cytokines were murine and from PeproTech. Cell viability was analyzed by AnnexinV and Propidium iodide FACS staining^35.
Total RNA was isolated and reverse transcribed with μMACS™ ONE-STEP T7 template kit (Miltenyi Biotec) and analysed by quantitative real-time PCR using TAQMAN® Universal PCR Master Mix and a 7500 Fast Real Time PCR System sequence detection system (both Applied Biosystem), following the manufacturers' instructions.

CD150hi HSC = assay: In vitro culture of HSC, proliferation and survival; type: cell-based, mice; settings: culture in the presence of M-CSF
Method: as §1

[2] = tested on: PU.1 in HSC of PU.1-GFP reporter mice; assay: PU.1-GFP reporter activation in HSC after in vivo injection (FACS)
Method: (§2) CD45.1 and C57Bl/6 mice were obtained from Charles River. PU.1-GFP^31 M-CSFR^−/−27 and PU.1^fl/fl 32 mice have been described. Age- and sex-matched CD45.1 recipients that were reconstituted as described^3 with CD45.2 foetal liver from wt or M-CSFR^−/− embryos^27 and PU.1^fl/fl or PU.1^fl/fl::MxCre bone marrow, were used to isolate CD150+CD34− KSLF HSC not earlier than 8 weeks after reconstitution. For in vivo injections the 10 μg/mouse M-CSF, 5 mg/kg LPS (055:B5 E. coli) or sorted cells were injected in 100 μl of PBS into the retro-orbital sinus. For HSC transplantation 400 CD150+CD34− KSLF HSC were sorted from CD45.2 mice and mixed with 100.000 Lin^+ Sca^− CD45.1 carrier cells prior to injection into sub-lethally irradiated (4.5 Gy) CD45.1 recipient mice. For competitive transplantations, 1300 CD150+, CD34-KSLF HSC were isolated 16 h after control or 10 μg M-CSF injection from actin-GFP CD45.2 mice^33, mixed with equal numbers of CD45.2 competitor HSC and injected with 300.000 Lin^+ Sca^− RC-lysed CD45.1 carrier cells into sub-lethally irradiated (4.5 Gy) CD45.1 recipients. Contribution to platelets, CD19+ B-cells and CD11b+ myeloid cells was analysed after 4 and 6 weeks in the blood from mice with at least 5% GFP+ donor cells. For PU.1 deletion PU.1^fl/fl or PU.1^fl/fl::MxCre reconstituted mice were intra-peritoneally injected with 5 μg/g Polyinosinic:polycytidylic acid 7 and 9 days prior to control (PBS) or 10 μg M-CSF injection. All mouse experiments were performed under specific pathogen-free conditions in accordance with institutional guidelines.
(§3) For FACS sorting and analysis we used described staining protocols^3 and published stem and progenitor cell definitions^34, FACSCANTO™ BD™ LSRII and FACSARIA™ III equipment and DIVA™ software (BECTON-DICKINSON), analysing only populations with at least 200 events. For HSC analysis we used antibodies anti-CD34-FITC (clone RAM34, BD BIOSCIENCES), anti-CD135-PE (clone A2F10.1, BD BIOSCIENCES), anti-CD150-Pe-Cy7 (clone TC15-12F12.2, BIOLEGEND), anti-CD117-APC H7 (clone 2B8, BD BIOSCIENCES), anti-Sca-1-Pe-Cy5 (clone D7, BIOLEGEND), anti-CD48-APC (clone HM48-1, BIOLEGEND). Diverging from this or in addition we used antibodies anti-CD34 Alexa 700 (clone RAM34, BD BIOSCIENCES), anti-CD16/32 PE (clone 2.4G2, BD BIOSCIENCES), anti-CD11b PE-CF594 (clone M1/70, BD BIOSCIENCES), anti-CD19PE-Cy7 (clone 1D3, BD biosciences), anti CD45.2 APC (clone 104, BD BIOSCIENCES) and anti CD45.1 Pacific Blue (clone A20, BD BIOSCIENCES) for progenitor and blood cell analysis. LIVE/DEAD Fixable Violet Dead cell dye (Invitrogen) was used as viability marker.

HSC [3] = assay: Competitive transplantation of M-CSF primed HSC, blood cell contribution; type: in vivo
Method: as §2

HSC [4] = assay: Transplantation of M-CSF primed HSC into sub-lethally irradiated recipients, analysis of progeny; type: in vivo, mice
Method: as §2, §3

B1: M-CSF: recombinant murine macrophage colony stimulating factor from PeproTech, used in Example 1 (protein, UniProt P07141 33-552, looked up)
Macrophage colony-stimulating …: KEVSEHCSHMIGNGHLKVLQQLIDSQMETSCQIAFEFVDQEQLDDPVCYLKKAFFLVQDIIDETMRFKDNTPNANATERLQELSNNLNSCFTKDYEEQNKACVRTFHETPLQLLEKIKNFFNETKNLLEKDWNIFTKNCNNSFAKCSSRDVVTKPDCNCLYPKATPSSDPASASPHQPPAPSMAPLAGLAWDDSQRTEGSSLLPSELPLRIEDPGSAKQRPPRSTCQTLESTEQPNHGDRLTEDSQPHPSAGGPVPGVEDILESSLGTNWVLEEASGEASEGFLTQEAKFSPSTPVGGSIQAETDRPRALSASPFPKSTEDQKPVDITDRPLTEVNPMRPIGQTQNNTPEKTDGTSTLREDHQEPGSPHIATPNPQRVSNSATPVAQLLLPKSHSWGIVLPLGELEGKRSTRDRRSPAELEGGSASEGAARPVARFNSIPLTDTGHVEQHEGSSDPQIPESVFHLLVPGIILVLLTVGGLLFYKWKWRSHRDPQTLDSSVGRPEDSSLTQDEDRQVELPV
- PU.1 expression in FACS purified HSC [1]: increased PU.1 expression
- proliferation or survival advantage of cultured CD150hi HSC (CD150hi HSC): no proliferation or survival advantage
- PU.1 activation in CD150hi HSC compared with total HSC ([2]; 16 h after injection): activated PU.1 to a similar extent
- change in M-CSFR or MafB expression ([2]; HSC after M-CSF injection): no significant change
- PU.1 activation in HSC ([2]; PU.1-GFP reporter mice, direct intravenous injection, after 16 h): significantly increased PU.1 activation
- change in the proportion of CD150hi HSC ([2]; in GFP-positive or -negative HSC): no change
- long-term multi-lineage contribution (HSC [3]): did not compromise
- myeloid contribution compared to platelet and lymphoid contribution in the blood (HSC [3]; after 6 weeks): re-equilibrated
- myeloid contribution compared to platelet and lymphoid contribution in the blood (HSC [3]; at 4 weeks): myeloid advantage
- myeloid differentiation preference of M-CSF primed HSC after deletion of PU.1 (HSC [4]; HSC with deleted PU.1 alleles, spleen 2 weeks): abolished
- ratio of GMP to MEP progenitors in the spleen (HSC [4]; in vivo M-CSF primed CD45.2 HSC, after 2 weeks): increased ratio
- myeloid to lymphoid cell ratio in peripheral blood (HSC [4]; in vivo M-CSF primed HSC, after 4 weeks): increased myeloid to lymphoid cell ratio
- ratio of GMP to MEP developing from PU.1+ HSC versus PU.1- HSC (HSC [4]; in vivo priming with M-CSF, spleen 2 weeks after transplantation): higher ratio

Reference: patent US10709762B2, “Use of M-CSF for preventing or treating myeloid cytopenia and related complications” (priority 2013, dated 2020)
